Assay: label from the status in PepcDB records

Sequence | protein production
MYSMLKRVITEKDLLRQIRLLEQLLNVPQLTAKRLAAQIQTTERTVFSDLQYIRSQLPADWSIETDSSGIRLRNQGNAQTNELWSLFLPQSISIQLLKELLFTKELVTTSFLSTSGVSYETLKRHIKKMNQALRDFHLTIQLTTMTIQLIGAESNIRIFYHRLLVPFTHNNYFFDDYSIHEEHYFQFLKQVYSSELTVETEEIFGACWFFINTIRNKANCRVSQFSFDSKDVLFQLYQPSLAKLYASEGIYLQGEESFFAFFCFLESWNYDNVYGETLASALHTHYSQLRKSLQQFVTNLSTEEARPDLIQTNLLDNLLLLFIKYTESPTLSEQFQLEYQELMTEQAAEDLALSKSNQELLEILSRYTTIEEPTYFLSLASLLEKQAIYSIQAQTMTAYFLFQGEPAWKAFLQQELAAYLGTRVKLQAIEYVELSQLTLNEADIIISNFPLDHLDLPVFYLSLIPTKNELRRLAELTLHSYF | not failed
MYSSGNPTNIANPIKDASVQIDLKTVGGKLTLYQTTLCERISGDNIDLGLDLGSQSFLPTYNKNDIQLICCQADASVLWLVPDTVVTRFIQSLDWDTDMDITFTWVLNRDRPKGKETVKYERSVDPLDLPKRSDIQMVLNGSMDGFRVHNLYPKFFRVTGSGDVRSFEDQTDEVSADILINHANFKWWWSFHNLKASENISACEGMDGPVAIIMSEETPPPVGRFIRLQCSDLRMRIPYENLPSCDRLIAICEDLYAARAEGELGVEEVLYWTLVKIYRSPHMLLEYTKLDYDA | failed
MYTIYVPGLRDPDLCNHSLMAEILCIYSSNAFEKIRKYDNLFTYVDYGNLKESELYKKRNEEESSFLYKKRILSNNIQDKKLKFDIKKEQFNYGALLFFSLNDGEFLNYISENICGNSVEVLASNNSMTTLVCGDDKGFIRILRNNPKYDDFEIKNTQMIRDVDKECCTKLFNNKIIKIDERRRNSYQTKRKKSIDKQQDLLKKAKMENFSDH | failed
MYTYKLQDEKPICSEKLKRLYDSVGWWPERKEIDIQKMLKNSIAIGVWKENELIGFARVVSDGVFRAYLEDVVVHESVRNKGIGEKMLTMLLEEISHINIVSLFCGEKLIKFYGQQQFQVTK | failed
MYVREVKDGKVVVAKARTSACGSCPAKNICLSDNEIKLEIDWCGEDLKPGDEVVVDIPEYDPLKVSTLVYFLPLVIFAVTVITGYLFRLKDWVTFVLALGSVFAYYSLFRFRRKDRKPPRILRKVS | failed
NAEKVALAKKVADESAVLLENRNDILPLDLNKYKSVAVVGPNSNQAVLGDYAWTMGDTKEAVSLLQGLQESAGDKIMIRHAEGCDWWSQDKSHIAEAVEVVRNSDIAVVAVGTRSTYLGRSPKYSTAGEGFDLSSLELPGVQEELLKEIKKTGKPMIVVLIAGKPLAMPWVKENADALLVQWYAGEQQGCTLADILLGKVNPSGKLNVSFPRSTGNTPCFYNHFVTDREEPFDQPGTPEEPKGHYIFDKPEPLWNFGHGKSYTTF | not failed
NAEKVALAKKVADESAVLLENRNDILPLDLNKYKSVAVVGPNSNQAVLGDYAWTMGDTKEAVSLLQGLQESAGDKIMIRHAEGCDWWSQDKSHIAEAVEVVRNSDIAVVAVGTRSTYLGRSPKYSTAGEGFDLSSLELPGVQEELLKEIKKTGKPMIVVLIAGKPLAMPWVKENADALLVQWYAGEQQGCTLADILLGKVNPSGKLNVSFPRSTGNTPCFYNHFVTDREEPFDQPGTPEEPKGHYIFDKPEPLWNFGHGKSYTTFDYVD | failed
NDDIIVNWVNRTLSEAGKSTSIQSFKDKTISSSLAVVDLIDAIQPGCINYDLVKSGNLTEDDKHNNAKYAVSMARRIGARVYALPEDLVEVKPKMVMTVFACLMGRGMKRV | not failed
NENNTVVAETKTSTASETSEPKQVISSKQQLASLYLQAKQSLFKQRALSATMYGLSQKDIGQVISSDMEFYSPENEKQLRAELLSISNTIAGIKLDDADITTKNNQQVMAGLTRYFAGEPNFNIGYIDTWMGLSPFIVNQINGPLIDIPRVMQNDQPITTEKEALDYIVRLGQFDKLAATIIEKQTADAAQNWLPSKVTLQGAIKYLKGFTSGSAEQHPFVNVFREKIEKVDSLTTEQKQSLITQVIAKVSQVVYPAYQSVEKASEQLLSEARSESGIWAQPKGSVYYQDAIKQLGDSELSPTQIHQIGLDEVARISGVMNEILLAQGYTKGTVGERMVALNEEPRFLYEDSIAGREELLSDINGYITEVTAKMAPVFRTTPSYQVEVKSFPVEVQDGAPGGQYTSPAVDGSKPGIYWINLRDMKANPKFGLKTLTYHEANPGHHWQIALNLDQAELPFLRRIAPYNAYTEGWALYSEQVAYELGMYENDPFGDLGRLQAELFRAVRLVVDTGLHDKRWTREQAISYMSEQTGTAESDVVAEIERYMAWPGQALGYKLGMLKILSLREQAKARLGDKFDLAEFHDVVLLNGAVPMAVLSRNVNHWLDNK | not failed
NGDQQTMVYIVSAKRKIIADRMLQELDLGVTMLQAVGAYKNNETEVIMCVMRKATLVKVRNLLKEVDPDAFMIVSTANEVFGEGFKNQYETEI | not failed
NGMDEEQRQKRRRIEVALIEYRETLEEQGMKNPEEIERKVEINRKRLEVDYGLS | not failed
NGQAITLASKHYGSVNSAADLKGMVLGIPFEYSVHALLLRDYLVSNAVDPIADLELRLLRPADMVAQLTVEGIDGFIGPGPFNERAISNGSGRIWLLTKQLWDKHPCCAVAMAKEWKAEHPTAAQGVLNALEEASAILSNPA | failed
NILFGISDTQECYNAIKFAVKLAHSLKEVRFTLLHVSMEVFIYSESGMMDYGQTEALEEEKAKALLKQFEDAFKKENIECESVLKSGDLIDVVLDMAKDYDLLLIGASESNLLYRLFISHQNSLVEQSSIPVVIAK | failed
NKIPTTMAFRTVTDVDNAVNGLYDLMSGSGYYGAAMFAYGDMKGDDMQSSEESGVCNTCYMFNHRPNSLNAGSLWGRPFYILREAWNILNAIAEGKIESGDEKKLNALKGETMAVIALCQFDLTRCFGYPYTKDKGASLGAPLIDHLVGTYENPPRSTVAQAYDFIIETLEEAVTLMSEEKNNGRMNKYAARALLARIYLYHDDNRKAFDLADQLIKDADTSGSYALYPHEKYVAAWSVEAKFGSESFFEIANSVDDTPGRDSWGYLLNWYGYQKGFVTQKYAEQMLADPGDVRGHLLEENKYAGKTVWWLYKLRGTDLKTAPLECNNVVLRLSEVYLIAAEAGCKLGGDAAVQGLGYLNEIVKRGNPDNEVTMADYTLDRVLDERSKELVGEGHRFFDLLRNGKTIVRKGGYHLPSVDEEVDWDFYKCVLPIPEDQFIFSPEMEQNPGYPKN | not failed
NLLDDAVKRISEDPPCKCPTKFCVERLSQGRYRVGEKILFIRMLHNKHVMVRVGGGWETFAGYLLKHDPCRMLQISRVDGKTSP | not failed
NMRQVLKTDRLVLEPQSMARFDQWFAMERQRDEAGHRDLTEDQAWLRLCARQGMWDAYACGFYYLLDPVSGEMRGEAGFQFRRRGFGPGFDNHPEAAWAVASAHQGRGLAAEAMQALLAHHDRSSGRQRVVALIARSNLPSLRLAERLGFR | failed
NMTISDIQHAPDYALLSNDEQQLCIQLKILPKPYLVLKEVMFRELLKTGGNLSKSACRELLNIDPIKANRIYDFFQSQNWM | not failed
NNDDDGTNKAQEIAGKYEGYSIGNCAMFTDYVMGEKSVATIVPNEDGTINVTYDSGSGEFKLNNIKVTSKTFEGSGQVELSMNDKPAGAKDFTLTGSIDEQQKLTLKVNVPSVMGGLTIEFIQGTLPISYHVSGTYNKEANLSVSVGSTTYPDITDCKVSIKRSSDDTVELTLKGLSNLNSSQTGRAMNLGDFTVTDVKVTSTDNSIFKIEGSINTTDTNNTPITGTLSGTVSNSETNITFTFKPGAMPIDITAMFKGKK | not failed
NNINVITDQMGNLDIKSNDNINQNTQNSNVASDLNLLTQNKYLENILMMNTYGVNYDHLFLPQNVAYLAAQQLSNNIMNNRNQINAAYTSQQYPNQSIPIKNIYDQSHLKYQQNSSSWRPPLNNGNIYDGVKSNPMGLHILQNGIDLYTNVDSNSVTSAINFDKYDSIPVSVTGPDYSATNVIENFDELKLDPTIRNNILLASYQRPTPIQKNAIPAILEHRDIMACAQTGSGKTAAFLIPIINHLVCQDLNQQRYSKTAYPKCLILAPTRELAIQILSESQKFSLNTPLRSCVVYGGADTHSQIREVQMGCHLLVATPGRLVDFIEKNKISLEFCKYIVLDEADRMLDMGFEPQIRKIIEESNMPSGINRQTLMFSATFPKEIQKLAADFLYNYIFMTVGRVGSTSDSIKQEIIYMTDVEKLNYLKNIFNTTAPNTLILIFVETKKGADSLARFLLSKGYPVSSIHGDRSQVEREAALSMFRNGQCPILVATAVAARGLDIPNVKHVINYDLPSDIEEYVHRIGRTGRLGNHGRATSFYVDKNNNIAIDLVDLLKEANQIVPQWLSALADELKRNSTMGSNNKRHNQRRYKNGNFGGRDYRQGPSNVNMNSGVNPDYFISGSVAPRHAKLNNGNYFPRSNELHDQHQKQNNNNNQVISNTFHTGISASHLIPGYATFNRQQAPLHFIPHQTNNTQFLSSSGQMALYNRMQNSGHMAPNQRFPNEPIHHQQEQLPITYNFSKNLPYLGQSYSGHNNNNNNNNNTSKINDSDSCYFGNKTPR | not failed
NNNSKINLFCVPSAGSSASIFSAWDKTSAENLKVIALEYPGHGRKIQQSLSHDPDFLAHQFSLEILAYGNTPYVLFGHSVGASLIWKIEEKLKLLHADHNLILKIVSARPSPLFQNLIHNYSHLTDEQMIKELRLYNNFPDEILNNASALNFFLPIIKNDFILSDNMLKKPIFKSSVPLMSVYGEADPYIKNHNIMESWSTYTNKWLGAHQFSGDHFYFLDTTILQKMLHLIQEKIY | failed
NNVIGALCVFQDISELVGIKELNERFQKILETSHDLICFIDENRKISYINPTYEKCLNIKSEDVLGKDLMKISPD | failed
NPDYVEVDRILEVAHTKDAETGEEVTHYLVKWCSLPYEESTWELEEDVDPAKVKEFESLQV | not failed
NSAAIQEMNREVEAAAKRTSPVFLTGEAGSPFETVARYFHKNGTPWVSPARVEYLIDMPMELLQKAEGGVLYVGDIAQYSRNIQTGITFIIGKAERCRVRVIASCSYAAGSDGISCEEKLAGLFSESVVRIPPLS | failed
NSDVPENTHLVSKEVQAAFNAKYPQAKDVEWELKGDYAVADFYWDGGEHSAWFNPLSAAWYMTETDVRYENLPEPVLAAHKAGKYADWRVDDVDKLTREGMETLYVIEVEKGESELDLFYSSTGILVKTVVDTGHEEDYDDYLPQPDANGIIAIVKQKYPNATIVEIEREKGLQEVTILDENKEKEVYFNERNEWMGTSWDVQVANLPEAVKKSVMEKYSDYVIDDADYVVTPDNEWYILDLENKQIDKELKVKVDKDGVWL | not failed
NTAPSLTVPECAICLQTCVHPVSLPCKHVFCYLCVKGASWLGKRCALCRQEIPEDFLD | not failed
NVGVFVLMHGDSTASSMLKTAQELLGTSIGTAMNMPLTMEVQTMYEQLRNQVITQKESLNNGILLLTDMGSLNSFGNMLFEETGIRTKAITMTSTMIVLEAIRMASVGRSLEDIYQNIQLSFESVVREQFRSSLQK | not failed
NVRVITDENWRELLEGDWMIEFYAPWCPACQNLQPEWESFAEWGEDLEVNIAKVDVTEQPGLSGRFIINALPTIYHCKDGEFRRYQGPRTKKDFINFISDKEWKSIEPVSSWF | not failed
PATPKKIKKEKKVPKLPRKDYWQAAMVIIISSIVLIASLFMISPLSRQKEITVSGNKNAIESQLIEELGIKKSDYLTTLLFQANRFERNLKSKDKWVKEAKLVYHFPNHFTLRVKEYRIIAYRQTDKGYVPILENGTRVDTVNASELPGSFVTINLDQEKEVRELVQKLAKLDKSLVGSIKVISSVNSSSTKDLLLLEMKDNNSVRVPLSEIDTKLPYYSKIKKNLTDGSIVDMEVGIYSTTADIEASIAEHKTTATTESSENS | failed
PCHHRITLDEFYQLFTNNKNIHLIDVRSTKEHQIQNIGGIVLPLDELPQRLHELNPNRLIILYCQSGTRSKMALDILLKAGFASVKYIENGLKGVTDNYNKDMPQ | failed

Reference: a protein production outcome set (Wang et al. 2014)
